According to the nanobody polyreactivity screen of Harvey et al. (2022):

Assay: yeast display, Sf9 membrane polyspecificity reagent, FACS + sequencing; frameworks hold sequencing errors
Summary of the method: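 In a synthetic yeast display library (Saccharomyces cerevisiae BJ5465), nanobody expression was induced with galactose for 36–48 hours. FACS gates were set low and high (top ~1%) using anti-HA fluorescence for expression and streptavidin fluorescence for binding of the Sf9 membrane reagent. Each polyreactivity label is drawn from the gate of origin.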

| Sequence | polyreactivity (PSR sort gate) |
| --- | --- |
| QVQLVESGGGLVQAGGSLRLSCAASGSTFLVYAMGWYRQAPGKERELVAAIRSGGRTYYADSVKGRFTISRDNAKNTVYLQMNSLKPEDTAVYYCAADVLLRYGYRGYDYWGQGTQVTVSS | low polyreactivity |
| QVQLVESGGGLVQAGGSLRLSCAASGRISQYNAMGWYRQAPGKERELVATITRGGSTYYADSVKGRFTISRDNAKNTVYLQMNSLKPEDTAVYYCATDRYWWSGFDYWGQGTQVTVSS | high polyreactivity |
| QVQVVESGGGLVQAGGSLRLSCAASGSIFHNNAMGWYRQAPGKERELVASITSRGGSTYYADSVKGRFTISRDNAKNTVYLQMNSLKPEDTAVYYCAARPYARVKTHGYWGQGTQVSVSS | low polyreactivity |
| QVQHVESGGGLVQAGGSLRLSCAASGSIFVPYAMGWYRQAPGKERELVAAISSRGGRTYYADSVKGRFTISRDNAKNTVYLQMISLKPEDTAVYYCNKTAGSHIPRLEYWGQGTQVTVSS | low polyreactivity |
| QVQLVESGGGLVQAGGSLRLSCAASGRTFDGYAMGWYRQAPGKERELVAAIDGGGSTNYADSVKGRFTISRDNAKNTVYLQMNSLKPEDTAVYYCAADRGSGPGYDYWGQGTQVTVSS | low polyreactivity |
| QVQLVESGGGLVQAGGSLRLSCAASGSTFRGYAMGWYRQAPGKERELVAAIRFSGGRTYYADSVKGRFTISRDNAKNTVYLQMNSLKPEDTAVYYCAKDYRPGWTGTDFYYWGQGTQVTVSS | low polyreactivity |
| QVQLVESGVGLVQAGGSLSLSSAASGSIFGYYAMGWYRQAPGKERELVAAITSDGDTYYADSVKGRFTISRDNAKNTVYLQINSLKPEDTAVYYCNATYGGPYYIQNDYWGQGTQVTVSS | low polyreactivity |
| QVQLVESGGGLVQAGGSLRLSCAASGIFDPNAMGWNRQAPRKERELVAAITSGGSTNYADSVKGRFTISRDNAKNTVYLQMNSLKPEDTAVYYCNRVEGRTRWADEMNYWGQGTQLTVSS | low polyreactivity |
| QVQLVESGGGLVQAGGSLRLSCAASGGIFKRNTMGWYRQAPGKERELVAGISWTGGRTYYADSVKGRFTISRDNAKNTVYLHMNSLKPEDTAVYYCAAKPLQGVRRVEYWGQGTQVTVSS | high polyreactivity |
| QVQLVESGGGLVQAGGSLRLSCAASGFTFPYYAMGWYRQAPGKERELVAAISKSGGSTYYADSVKGRFTISRDYAKNTVYLQMNSLKPEDTAVYYCAADWYWWSYSDRHDYWGQGIQVTVSS | high polyreactivity |
| QVQLVESGGGLVQAGGSLRLSCAASGRIFLLNAMGWYRQAPGKERELVARISSGRTYYADSVKGRFTISRDNAKNTVYLQMNSLKPEDTAVYYCNATVSSSKYRYFYVNPYDYWGQGTQVTVSS | low polyreactivity |
| QVQLVESGGGLVQAGGSLRLSSAASGRTFGYNAMGWYRPATGKERELVAAISWSGARTYYADSVKGRFTISRDIAKNTVYLQLNSLTPEDTAVYYCAAGIDGYYWPFFRNYDYWGQGTQVTVSS | high polyreactivity |
| QVQLVESGGGLVQAGGSLRLSCAASGSTFDGNTMGWYRQAPGKERELVAAISGSGGSTYYADSVKGRFTISRDNAKKTVYLQMNSLKPEDTAVYYCAARRIHTTSSRGYYWGQGTQVTVSS | high polyreactivity |
| QVQLVESGGGLVQAGGSLRLSCAASGFTLDVNAIGWYRQAPGKERELVATISWGGASTYYADSVKGRFTISRDNAKNTVYLQMNSLKPEDTAVYYFAAQYYYPDDKGGYDYWGQGTQVTVSS | low polyreactivity |
| QVQLVESGGGLVQAGGSLRLSCAASGYIFYRYAMGWYRQAPGKEREFVASITKRGGRTFYADSVKGRFTISRDNAKNTVYLQMNSLKPEDTAVYYCARKAEYGTDMGYWGQGTQVTVSS | high polyreactivity |
| QVQLVESGGGLVQAGGSLRLSCAASGFIFLGKAMGWYRQAPAKERELVAAISSGGSTYADSVKGRFTISSDNAKNTVYLQMYSLKPEDTAVYYFAVDRAFRAQNYHEYYYWGQGTQVTVSS | low polyreactivity |
| QVQLVESGGGLVQAGGSLRLSCAASGIIFSYNAMGWYRQAPGKERELVAANNSSGGSTNYADSVKGRFTISRDNAKNTVYLQMNSLKPEDTAVYYCAARDATYYGVWRYYGIDDYWGQGTQVTVSS | low polyreactivity |
| QVQLVESGGGLVQAGGSLRLSCAASGNTVDGNAMGWYRPAPGKERELVAAINYSGASTYYADSVKGRFTISRDNAKNTVYLQINSLKPEDTAVYYCAADDYTASDRYWHDYWGQGTQVTVSS | low polyreactivity |
| QVQLVESGGGLLQAGGSLRLSCAASGSISAQYALGWYRQAPGKERELVAAIDFSGGSTYYADSVKGRFTISRDNAKNTVYLQRNSLKPEDTAVYYCAARGDGDPSTDITLVEYDYWGQGTQVTVSS | low polyreactivity |
| QVQLVESGGGLVQAGGSLRLSCADSGITLYYNAMGWYRQAPGKERELVAAISWSGDSTYYADSVKGRFTISRDNAKNTVYLQMNSLKPEDTAVYYCAADRYTYYHYAWYEYWGQGTQVTVSS | low polyreactivity |
| QVQLVESGGGLVQAGGSLRLSCAASGSIFSYDAMGWYRLAPGKERELVAVINSGGRTNYADSVKGRFTISRDNAKNTVYLQMNRLKPEDTAVYYCAAQGYFVDRAGRYDRGDYWGQGTQVTVSS | high polyreactivity |
